Substrate in the data set: Nc1ncnc2c1ncn2[C@@H]1O[C@H](COP(=O)(O)OP(=O)(O)OP(=O)(O)O)[C@@H](O)[C@H]1O
The experiment in a line: ATP/NADH coupled assay (pyruvate kinase / lactate dehydrogenase), A340, Hanes-Woolf plot. The data set is classed as biochemical, Nostoc sp. PCC 7120 = FACHB-418. The note with it: 50 mM Tris-HCl pH 8.0, 20 mM KCl, 5 mM MgCl2, 25 °C, 50 μg GvpN in assay, methods state NADH (40 to 200 μM), not ATP, was varied.

B1: GvpN (Nostoc sp. PCC 7120 = FACHB-418) (protein)
chain: MTLTANNKKRAVLRVRPGQFVVTPAIEQVAIRALRYLTSGFAIHLRGPAGTGKTTLAMHLANCLDRPIMLIFGDDEFKSSDLIGSESGYTHKKLLDNYIHSVLKVEDEFKQNWVDSRLTLACREGFTLVYDEFNRSRPEVNNVLLSALEEKILTLPPSSNQPEYLHVNPQFRAIFTSNPEEYCGVHSTQDALMDRLVTINMPEPDELTQTEILAQKTALNRADALLIVRLVKAFRSRTGGEKTSGLRSCLMIAKVCAEHNILVSPQSSDFREICADVLFNRTNWSASEAATIFLELLNHLDLQQIEEFKNSIIPEDTDAIAEGGFPTIIDSHFGTLDSEVLEQPGVEDSIPFEQEIYLYLQQYKSAALALVQQEFELSRTVATNALNSLEQKGLVSKNNHVYTIEEPNQS
notes: recombinant, C-terminal 6xHis tag (modified pET-29a, same manner as GvpF), E. coli BL21(DE3), Ni-NTA and Superdex 200; N-terminal AAA domain
With B1, the Km came out at 3.9 ± 1.5 µM and the kcat is 35 ± 2 s⁻¹.

The Km is the substrate concentration at which the rate is half of its maximum. The kcat is the number of substrate molecules converted per active site and unit of time at saturation.

The values are drawn from paper PMC7204071, “The model cyanobacteria Anabaena sp. PCC 7120 possess an intact but partially degenerated gene cluster encoding gas vesicles” (BMC Microbiology, 2020).
